Measured values taken from patent US20220089766A1 (published 2022).

B1: bsAb7945 (bispecific antibody, human IgG4 S228P, kappa)
heavy 1: QVQLVQSGAEVKKPGSSVKVSCKASGGPFRSSSFSWVRQAPGQGLEWMGGIIPILGKTNYAQKFQGRITIVTDESTTTVYMELSSLRSEDTAVFYCVRGSSLFDYWGQGTLVTVSSASTKGPSVFPLAPCSRSTSESTAALGCLVKDYFPEPVTVSWNSGALTSGVHTFPAVLQSSGLYSLSSVVTVPSSSLGTKTYTCNVDHKPSNTKVDKRVESKYGPPCPPCPAPPVAGPSVFLFPPKPKDTLMISRTPEVTCVVVDVSQEDPEVQFNWYVDGVEVHNAKTKPREEQFNSTYRVVSVLTVLHQDWLNGKEYKCKVSNKGLPSSIEKTISKAKGQPREPQVYTLPPSQEEMTKNQVSLTCLVKGFYPSDIAVEWESNGQPENNYKTTPPVLDSDGSFFLYSRLTVDKSRWQEGNVFSCSVMHEALHNHYTQKSLSLSLGK
heavy 2: QVQLQESGPGLVKPSETLSLTCTVSGGSISSYYWSWIRQPPGKGLEWIGYIYYSGITHYNPSLKSRVTISVDTSKIQFSLKLSSVTAADTAVYYCARWGVRRDYYYYGMDVWGQGTTVTVSSASTKGPSVFPLAPCSRSTSESTAALGCLVKDYFPEPVTVSWNSGALTSGVHTFPAVLQSSGLYSLSSVVTVPSSSLGTKTYTCNVDHKPSNTKVDKRVESKYGPPCPPCPAPPVAGPSVFLFPPKPKDTLMISRTPEVTCVVVDVSQEDPEVQFNWYVDGVEVHNAKTKPREEQFNSTYRVVSVLTVLHQDWLNGKEYKCKVSNKGLPSSIEKTISKAKGQPREPQVYTLPPSQEEMTKNQVSLTCLVKGFYPSDIAVEWESNGQPENNYKTTPPVLDSDGSFFLYSRLTVDKSRWQEGNVFSCSVMHEALHNRFTQKSLSLSPGK
light: not shown
B2: bsAb6031 (bispecific antibody, human IgG4 S228P, kappa)
heavy 1: EVQLVESGGGLVQPGRSLRLSCAASGFTFDDYAMHWVRQAPGKGLEWVSGISWKSDNIGYADSVKGRFTISRDNAKNSLYLQMNSLRAEDTALYYCAKALGGWKFDYYYGMDVWGQGTTVTVSSASTKGPSVFPLAPCSRSTSESTAALGCLVKDYFPEPVTVSWNSGALTSGVHTFPAVLQSSGLYSLSSVVTVPSSSLGTKTYTCNVDHKPSNTKVDKRVESKYGPPCPPCPAPPVAGPSVFLFPPKPKDTLMISRTPEVTCVVVDVSQEDPEVQFNWYVDGVEVHNAKTKPREEQFNSTYRVVSVLTVLHQDWLNGKEYKCKVSNKGLPSSIEKTISKAKGQPREPQVYTLPPSQEEMTKNQVSLTCLVKGFYPSDIAVEWESNGQPENNYKTTPPVLDSDGSFFLYSRLTVDKSRWQEGNVFSCSVMHEALHNHYTQKSLSLSLGK
heavy 2: EVQLVESGGGLVQPGGSLRLSCAASGFTFSRNNMHWVRQAPGKGLEYVSGISSNGGRTYYADSVKGRFTISRDNSKNTLYLQMGGLRAADMAVYFCTRDDELLSFDYWGQGTLVTVSSASTKGPSVFPLAPCSRSTSESTAALGCLVKDYFPEPVTVSWNSGALTSGVHTFPAVLQSSGLYSLSSVVTVPSSSLGTKTYTCNVDHKPSNTKVDKRVESKYGPPCPPCPAPPVAGPSVFLFPPKPKDTLMISRTPEVTCVVVDVSQEDPEVQFNWYVDGVEVHNAKTKPREEQFNSTYRVVSVLTVLHQDWLNGKEYKCKVSNKGLPSSIEKTISKAKGQPREPQVYTLPPSQEEMTKNQVSLTCLVKGFYPSDIAVEWESNGQPENNYKTTPPVLDSDGSFFLYSRLTVDKSRWQEGNVFSCSVMHEALHNRFTQKSLSLSPGK
light: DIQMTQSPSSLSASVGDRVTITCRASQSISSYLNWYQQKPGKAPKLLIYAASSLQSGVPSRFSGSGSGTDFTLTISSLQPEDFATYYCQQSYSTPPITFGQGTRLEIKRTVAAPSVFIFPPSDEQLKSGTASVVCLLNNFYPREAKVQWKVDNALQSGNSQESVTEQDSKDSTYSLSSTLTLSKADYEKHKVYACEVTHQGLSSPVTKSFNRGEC
notes: also called anti-CD38×CD28 bispecific antibody

Assays:
[1] = biological target: T1, human CD38 on target cells (HEK293/hCD20/hCD38, MOLP8, NALM-6, NALM-6/hPD-L1) (human, UniProt P28907 1-300); test: cell-based or functional assay
[2] = biological target: T1, human CD38 on target cells …; test: cell-based or functional assay; remark: listed apart in the source
[3] = biological target: T1, human CD38 on target cells …; test: cell-based or functional assay; remark: listed apart in the source
[4] = biological target: T1, human CD38 on target cells …; test: cell-based or functional assay; remark: listed apart in the source
[5] = biological target: T2, Dimeric human CD28 with a c-terminal mouse Fc tag (hCD28.mFc) (human); test: SPR (Biacore, 25 C); group summary of Table 9
T2 construct: also called bsAb2012; Human CD28 extracellular domain (N19-P152).mFc
Protocol: (§1) For CD28 kinetic determinations, SPR experiments were performed using a Biacore 3000 instrument at 25° C. Dimeric human CD28 with a c-terminal mouse Fc tag (hCD28.mFc, bsAb2012) were captured for 37 seconds at a flow rate of 8 uL/min on a CM5 anti-mouseFc-(GE)-coupled surface. Approximately 150 RU of hCD28.mFc were captured. […] Dissociation was measured for 10 minutes. The KD and t_{1/2} were calculated by fitting the double-referenced sensorgrams to a 1:1 binding model.

[6] = biological target: T3, Monomeric human CD38 with a c-terminal myc-myc-hexahistidine tag (hCD38.mmH) (human, UniProt P28907 43-300); test: SPR (Biacore, 25 C); group summary of Table 8
T3 construct: also called bsAb3305; not shown: C-terminal myc-myc-hexahistidine tag

[7] = biological target: T2, Dimeric human CD28 with a c-terminal …; test: SPR (Biacore 3000, 25 C); hCD28.mFc captured on anti-mouse Fc, bsAb injected; 1:1 fit
Protocol: as §1

[8] = biological target: T3, Monomeric human CD38 with a c-terminal …; test: SPR (Biacore 3000, 25 C); bsAb captured on anti-human Fc, hCD38.mmH injected; 1:1 fit
Protocol: For CD38 kinetic determinations, SPR experiments were performed using a Biacore 3000 instrument at 25° C. Antibodies were captured for 37 seconds at a flow rate of 8 uL/min on a CM5 anti-humanFc-(bsAb2567)-coupled surface. Approximately 230 RU of each antibody were captured. […] Dissociation was measured for 10 minutes. The KD and t½ were calculated by fitting the double-referenced sensorgrams to a 1:1 binding model.

Row | Binder | IL2 release EC50; T cells + NALM-6, + Cemiplimab [1] [nM] | IL2 release EC50; T cells + NALM-6/hPD-L1, + Cemiplimab [1] [nM] | IL2 release EC50; T cells + NALM-6/hPD-L1, + IgG4^P [1] [nM] | IL2 release EC50; T cells + HEK293/hCD20/hCD38, + TAAxCD3 (bsAb1979) [2] [nM] | IL2 release EC50; T cells + MOLP8, + IgG4^P isotype control [2] [nM] | T-cell proliferation EC50; T cells + HEK293/hCD20/hCD38, + TAAxCD3 (bsAb1979) [3] [nM] | IFNγ release EC50; T cells + HEK293/hCD20/hCD38, + TAAxCD3 (bsAb1979) [4] [nM] | IFNγ release EC50; T cells + MOLP8, + TAAxCD3 (bsAb5458) [4] [nM] | other results
1 | B1 | 0.0981 | 0.143 | 0.169 | 0.00502 | 0.00971 | 0.000894 | 0.123 | 0.00424 | IL2 release EC50; T cells + HEK293/hCD20/hCD38, + IgG4^P isotype control [2]: 41.4 nM; T-cell proliferation EC50; T cells + HEK293/hCD20/hCD38, + IgG4^P isotype control [3]: 45.6 nM
2 | B2 | 2.44 | 4.39 | 2.64 | 0.199 | 0.653 | 0.143 | 0.294 | 0.748 | IL2 release EC50; T cells + NALM-6, + IgG4^P [1]: 1.68 nM; Kd [5]: < 26 nM; Kd [6]: < 10 nM; Kd [7]: 25.9 nM; koff [7]: 0.00149 s⁻¹; kon [7]: 57400 M⁻¹ s⁻¹; t½ [7]: 7.8 min; IL2 release EC50; T cells + MOLP8, + TAAxCD3 (bsAb5458) [2]: 1.02 nM; T-cell proliferation EC50; T cells + MOLP8, + IgG4^P isotype control [3]: 0.467 nM; Kd [8]: 7.08 nM; koff [8]: 0.000748 s⁻¹; kon [8]: 106000 M⁻¹ s⁻¹; t½ [8]: 15.4 min
